Data published in the supplement of paper PMC7877785.
± gives the uncertainty stated by the source.

Assay: self-splicing fitness, log relative to wild type (ln ratio); higher = more splicing; Tetrahymena group I intron in knt gene, E. coli kanamycin selection, DiMSum; sequences stand for … in CUCUCU…GGAGGGAAAAGUUAUCAGGCAUGCACCUGGUAGCUAGUCUUUAAACCAAUAGAUUGCAUCGGUUUAAAAGGCAAGACCGUCAAAUUGCGGGAAAGGGGUCAACAGCCGUUCAGUACCAAGUCUCAGGGGAAACUUUGAGAUGGCCUUGCAAAGGGUAUGGUAAUAAGCUGACGGACAUGGUCCUAACCACGCAGCCAAGUCCUAAGUCAACAGAUCUUCUGUUGAUAUGGAUGCAGUUCACAGACUAAAUGUCGGUCGGGGAAGAUGUAUUCUUCUCAUAAGAUAUAGUCGGACCUCUCCUUAAUGGGAGCUAGCGGAUGAAGUGAUGCAACACUGGAGCCGCUGGGAACUAAUUUGUAUGCGAAAGUAUAUUGAUUAGUUUUGGAGUACUCGUGGUCG
Method in brief: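 Pooled colonies went to amplicon sequencing on an Illumina HiSeq 2500 after six replicate transformations. The plates were LB agar with 100 μg/mL carbenicillin, 50 μM IPTG and 0.2% rhamnose, with or without 25 μg/mL kanamycin, incubated overnight at 37°C or 30°C. The E. coli BL21(DE3) library had all eight P1ex-region intron nucleotides randomised, the intron placed in the knt kanamycin-resistance gene on pET-22b(+). DiMSum fitness is the error-weighted combination of replicate fold changes, kanamycin against none, normalised to wild type.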

| Sequence | self-splicing fitness (ln) (30 °C) | self-splicing fitness (ln) (37 °C) |
| --- | --- | --- |
| CAGAAGCAAUAUUACGUGAG | -1.05 ± 0.064 | -0.806 ± 0.076 |
| UACGAGCAAUAUUACGUCGC | -3.3 ± 0.47 | -2.49 ± 0.42 |
| GUCAAGCAAUAUUACGUGAG | -1.2 ± 0.054 | -0.505 ± 0.067 |
| GGCUAGCAAUAUUACGACGG | -3.75 ± 0.37 | -2.18 ± 0.46 |
| AGAAAGCAAUAUUACGUGUG | -2.13 ± 0.081 | -1.78 ± 0.095 |
| GCUGAGCAAUAUUACGGGAC | -1.25 ± 0.13 | -2.16 ± 0.22 |
| UGUUAGCAAUAUUACGAGCU | -0.427 ± 0.16 | 0.455 ± 0.19 |
| GCAUAGCAAUAUUACGAGUC | -2.44 ± 0.12 | -2.7 ± 0.17 |
| UAUUAGCAAUAUUACGCUGG | -2 ± 0.14 | -0.655 ± 0.14 |
| GAAAAGCAAUAUUACGGACC | -0.128 ± 0.094 | -0.398 ± 0.15 |
| CGUGAGCAAUAUUACGCACG | -3.19 ± 0.29 | -2.94 ± 0.47 |
| CCUGAGCAAUAUUACGCCUU | -2.73 ± 0.28 | -2.01 ± 0.2 |
| CGCCAGCAAUAUUACGAGCU | -3.06 ± 0.097 | -1.59 ± 0.094 |
| GAAGAGCAAUAUUACGACAA | – | -2.02 ± 0.38 |
| GGCAAGCAAUAUUACGCGCC | – | -1.77 ± 0.28 |
| AUAAAGCAAUAUUACGCACA | 0.246 ± 0.1 | 0.202 ± 0.15 |
| CGGGAGCAAUAUUACGUCUA | -1.89 ± 0.21 | -1.82 ± 0.21 |
| UCGUAGCAAUAUUACGCUAU | -2.37 ± 0.45 | -2.88 ± 0.4 |
| CAGGAGCAAUAUUACGCGUU | -3.4 ± 0.17 | -2.01 ± 0.19 |
| AUCCAGCAAUAUUACGUCCG | -2.45 ± 0.17 | -1.04 ± 0.15 |
| AUUUAGCAAUAUUACGGCUG | -0.937 ± 0.12 | -0.723 ± 0.13 |
| AGUAAGCAAUAUUACGGUUU | -1.45 ± 0.092 | -0.554 ± 0.11 |
| GGGUAGCAAUAUUACGCCAC | – | -1.72 ± 0.48 |
| AGAAAGCAAUAUUACGAUGU | -0.998 ± 0.063 | -0.229 ± 0.083 |
| GGUAAGCAAUAUUACGGCGC | 0.369 ± 0.14 | 0.841 ± 0.18 |
| GUGCAGCAAUAUUACGAGGU | -3.63 ± 0.3 | -2.47 ± 0.21 |
| UUCCAGCAAUAUUACGUUGC | -2.4 ± 0.15 | -2.47 ± 0.33 |

| Sequence | self-splicing fitness (ln) (30 °C) | self-splicing fitness (ln) (37 °C) |
| --- | --- | --- |
| UGUAAGCAAUAUUACGAUAG | -1.44 ± 0.25 | -1.87 ± 0.29 |
| CUCUAGCAAUAUUACGAUGA | -1.93 ± 0.2 | -1.93 ± 0.29 |
| GGGCAGCAAUAUUACGCGUU | -0.662 ± 0.073 | -0.349 ± 0.087 |
| CCCCAGCAAUAUUACGGUAU | -3.72 ± 0.13 | -2.88 ± 0.2 |
| CCUUAGCAAUAUUACGGGAC | -3.96 ± 0.46 | – |
| GUGAAGCAAUAUUACGCAUC | – | -1.69 ± 0.49 |
| GUUGAGCAAUAUUACGUCGG | -3.61 ± 0.39 | -1.61 ± 0.27 |
| GACGAGCAAUAUUACGCACU | -1.32 ± 0.15 | -0.506 ± 0.16 |
| CCCUAGCAAUAUUACGCUCG | -2.25 ± 0.2 | -2.85 ± 0.48 |
| GCAAAGCAAUAUUACGAGUC | -1.41 ± 0.14 | -2.6 ± 0.19 |
| AGAUAGCAAUAUUACGGACG | -0.861 ± 0.15 | -0.892 ± 0.15 |
| CGAGAGCAAUAUUACGGAUA | -2.25 ± 0.37 | -1.82 ± 0.41 |
| UAGGAGCAAUAUUACGGCGG | -2.34 ± 0.24 | -0.013 ± 0.26 |
| AAUGAGCAAUAUUACGGUGU | -4.53 ± 0.29 | -2.55 ± 0.19 |
| AUGUAGCAAUAUUACGGGCC | -2.93 ± 0.35 | -1.86 ± 0.32 |
| UGUUAGCAAUAUUACGGAAA | – | -2.24 ± 0.39 |
| GUUUAGCAAUAUUACGUCUA | -1.25 ± 0.14 | -0.618 ± 0.13 |
| CCGUAGCAAUAUUACGAUCU | – | -2.46 ± 0.45 |
| UCGUAGCAAUAUUACGUCAG | -3.66 ± 0.48 | -1.89 ± 0.29 |
| UUGUAGCAAUAUUACGGAGG | -3.76 ± 0.42 | -1.87 ± 0.35 |
| CCUCAGCAAUAUUACGGUAA | -3.97 ± 0.25 | -2.47 ± 0.18 |
| GUCUAGCAAUAUUACGCGAG | -1.08 ± 0.13 | 0.182 ± 0.13 |
| GUAAAGCAAUAUUACGCUAU | -1.22 ± 0.087 | -0.23 ± 0.1 |
| AUCGAGCAAUAUUACGGAUG | – | 0.184 ± 0.17 |
| UUUGAGCAAUAUUACGCAAU | -3.33 ± 0.48 | -1.5 ± 0.46 |
| GUGGAGCAAUAUUACGAAGU | -2.01 ± 0.28 | -1.66 ± 0.39 |
| AGUAAGCAAUAUUACGAGCC | -0.632 ± 0.16 | -0.472 ± 0.17 |

| Sequence | self-splicing fitness (ln) (30 °C) | self-splicing fitness (ln) (37 °C) |
| --- | --- | --- |
| AGCUAGCAAUAUUACGGUCU | -0.425 ± 0.068 | 0.136 ± 0.088 |
| ACGAAGCAAUAUUACGCGUC | -3.76 ± 0.21 | -1.91 ± 0.19 |
| CUAUAGCAAUAUUACGUAAU | -2.07 ± 0.16 | -3.88 ± 0.36 |
| GCUAAGCAAUAUUACGUGUC | -2.75 ± 0.13 | -2.22 ± 0.14 |
| CUGGAGCAAUAUUACGACAU | -2.19 ± 0.019 | -1.3 ± 0.036 |
| UGAGAGCAAUAUUACGUCAA | -3.55 ± 0.29 | -2.89 ± 0.3 |
| CAGGAGCAAUAUUACGUUCU | -4.15 ± 0.2 | -2.05 ± 0.14 |
| AUUGAGCAAUAUUACGUAGC | -3.31 ± 0.4 | -2.32 ± 0.31 |
| GGUCAGCAAUAUUACGAUCC | – | -0.912 ± 0.18 |
| AAUCAGCAAUAUUACGCGAG | -0.887 ± 0.068 | -1.07 ± 0.088 |
| AAAAAGCAAUAUUACGGAUA | -2.25 ± 0.11 | -1.14 ± 0.097 |
| CAUCAGCAAUAUUACGUUAG | -0.472 ± 0.073 | -0.526 ± 0.08 |
| UUGCAGCAAUAUUACGCAGU | – | -2.71 ± 0.39 |
| UUUUAGCAAUAUUACGUACG | -2.14 ± 0.37 | -0.297 ± 0.33 |
| UAGAAGCAAUAUUACGAAGC | – | -2.2 ± 0.24 |
| CUAUAGCAAUAUUACGAUGU | -3.67 ± 0.4 | -3.04 ± 0.43 |
| CUGAAGCAAUAUUACGCGGU | -1.86 ± 0.08 | -0.746 ± 0.081 |
| UCUAAGCAAUAUUACGCCGC | -2.69 ± 0.29 | – |
| ACUAAGCAAUAUUACGAUUU | -0.208 ± 0.062 | -0.0751 ± 0.09 |
| CGAGAGCAAUAUUACGGGGU | -2.86 ± 0.37 | -2.27 ± 0.37 |
| GCUAAGCAAUAUUACGAGCU | -2.25 ± 0.33 | -0.165 ± 0.31 |
| AUUUAGCAAUAUUACGGCUC | -0.153 ± 0.097 | 0.0525 ± 0.11 |
| GGGGAGCAAUAUUACGUGUA | -3.7 ± 0.31 | -2.23 ± 0.22 |
| GGCAAGCAAUAUUACGGAUG | -2.34 ± 0.15 | -0.798 ± 0.15 |
| AGCGAGCAAUAUUACGCGCG | -4.04 ± 0.33 | -1.89 ± 0.25 |
| AUGUAGCAAUAUUACGCGGA | -2.41 ± 0.3 | -1.09 ± 0.2 |
